Measurements: article PMC11271964, “Design and characterization of hyperactive mutants of the Agrobacterium tumefaciens telomere resolvase, TelA”
Numbering of substitutions follows the chain as printed.

Experiments:
[1] = biological target: TelA (107–442) N-terminal domain deletion mutant with the E337K mutation (Agrobacterium tumefaciens)
TelA (ΔC3; D202AE337K) = biological target: T1, TelA (ΔC3; D202AE337K) (Agrobacterium tumefaciens, UniProt Q7CWV1 1-439, D202A;E337K); assay: EMSA; 2 mM Ca2+; EMSA: HEPES pH 7.6, 1 mM DTT, 2 mM CaCl2, 100 ug/mL BSA, 50 mM potassium glutamate, 0.8 ug/mL supercoiled pUC19 competitor, 76 ng/mL heparin sulphate, 2 nM labeled rTel, 0 C; conditions: protein: recombinant; chain copies: 2; label: 5'-fluorescein on strand 1; 5' overhang 2 nt at both ends
T1 sequence: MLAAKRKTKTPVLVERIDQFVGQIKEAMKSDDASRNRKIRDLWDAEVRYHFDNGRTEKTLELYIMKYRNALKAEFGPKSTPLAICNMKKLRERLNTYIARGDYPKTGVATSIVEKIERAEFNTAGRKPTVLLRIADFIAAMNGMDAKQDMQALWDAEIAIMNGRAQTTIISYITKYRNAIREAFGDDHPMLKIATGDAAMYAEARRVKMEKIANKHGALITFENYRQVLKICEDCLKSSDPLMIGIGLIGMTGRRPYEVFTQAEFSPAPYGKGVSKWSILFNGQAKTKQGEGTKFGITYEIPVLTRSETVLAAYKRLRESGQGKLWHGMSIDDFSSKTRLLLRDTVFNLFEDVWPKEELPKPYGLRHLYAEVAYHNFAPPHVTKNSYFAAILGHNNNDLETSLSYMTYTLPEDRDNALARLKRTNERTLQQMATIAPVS

[2] = biological target: T2, TelA N-terminal domain (N; K9E) (Agrobacterium tumefaciens, UniProt Q7CWV1 1-106, K9E); assay: as above; conditions: protein: recombinant; label: 5'-fluorescein on strand 1; 5' overhang 2 nt at both ends
T2 sequence: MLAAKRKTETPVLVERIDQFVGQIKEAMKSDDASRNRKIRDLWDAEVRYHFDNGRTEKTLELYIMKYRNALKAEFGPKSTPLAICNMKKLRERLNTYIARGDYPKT

TelA (ΔN) = biological target: T3, TelA (ΔN) (Agrobacterium tumefaciens, UniProt Q7CWV1 107-442); assay: as above; conditions: protein: recombinant
T3 sequence: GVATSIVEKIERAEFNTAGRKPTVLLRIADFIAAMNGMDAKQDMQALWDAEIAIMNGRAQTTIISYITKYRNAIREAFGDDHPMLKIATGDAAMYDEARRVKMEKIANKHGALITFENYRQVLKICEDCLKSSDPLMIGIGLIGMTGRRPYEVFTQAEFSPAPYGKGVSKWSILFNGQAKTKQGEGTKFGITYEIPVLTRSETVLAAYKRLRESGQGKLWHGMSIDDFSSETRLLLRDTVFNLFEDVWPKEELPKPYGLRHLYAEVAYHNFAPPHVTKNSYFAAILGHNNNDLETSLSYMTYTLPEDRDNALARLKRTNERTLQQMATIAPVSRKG

TelA (ΔNΔC3; D202RE337K) = biological target: T4, TelA (ΔNΔC3; D202RE337K) (Agrobacterium tumefaciens, UniProt Q7CWV1 107-439, D202R;E337K); assay: as above; conditions: protein: recombinant; chain copies: 2; label: 5'-fluorescein on strand 1; 5' overhang 2 nt at both ends
T4 sequence: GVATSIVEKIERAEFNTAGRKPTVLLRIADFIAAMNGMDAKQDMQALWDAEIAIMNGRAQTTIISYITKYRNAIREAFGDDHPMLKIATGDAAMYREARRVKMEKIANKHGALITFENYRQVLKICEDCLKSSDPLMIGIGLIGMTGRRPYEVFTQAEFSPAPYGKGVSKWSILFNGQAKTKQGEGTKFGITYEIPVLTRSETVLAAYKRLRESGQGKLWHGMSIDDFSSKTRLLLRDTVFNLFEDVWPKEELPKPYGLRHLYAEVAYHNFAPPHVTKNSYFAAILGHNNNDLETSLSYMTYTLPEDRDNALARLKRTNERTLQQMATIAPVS

[3] = biological target: T5, TelA N-terminal domain (N) (Agrobacterium tumefaciens, UniProt Q7CWV1 1-106); assay: EMSA; 2 mM Ca2+; laddering bandshift; EMSA: HEPES pH 7.6, 1 mM DTT, 2 mM CaCl2, 100 ug/mL BSA, 50 mM potassium glutamate, 0.8 ug/mL supercoiled pUC19 competitor, 76 ng/mL heparin sulphate, 2 nM labeled rTel, 0 C; conditions: protein: recombinant; label: 5'-fluorescein on strand 1; 5' overhang 2 nt at both ends
T5 sequence: T2 sequence with E9K

TelA wild type = biological target: T6, TelA wild type (Agrobacterium tumefaciens, UniProt Q7CWV1 1-442); assay: EMSA; 2 mM Ca2+; c1 and c2 complexes; EMSA: HEPES pH 7.6, 1 mM DTT, 2 mM CaCl2, 100 ug/mL BSA, 50 mM potassium glutamate, 0.8 ug/mL supercoiled pUC19 competitor, 76 ng/mL heparin sulphate, 2 nM labeled rTel, 0 C; conditions: protein: recombinant; chain copies: 2; label: 5'-fluorescein on strand 1; 5' overhang 2 nt at both ends
T6 sequence: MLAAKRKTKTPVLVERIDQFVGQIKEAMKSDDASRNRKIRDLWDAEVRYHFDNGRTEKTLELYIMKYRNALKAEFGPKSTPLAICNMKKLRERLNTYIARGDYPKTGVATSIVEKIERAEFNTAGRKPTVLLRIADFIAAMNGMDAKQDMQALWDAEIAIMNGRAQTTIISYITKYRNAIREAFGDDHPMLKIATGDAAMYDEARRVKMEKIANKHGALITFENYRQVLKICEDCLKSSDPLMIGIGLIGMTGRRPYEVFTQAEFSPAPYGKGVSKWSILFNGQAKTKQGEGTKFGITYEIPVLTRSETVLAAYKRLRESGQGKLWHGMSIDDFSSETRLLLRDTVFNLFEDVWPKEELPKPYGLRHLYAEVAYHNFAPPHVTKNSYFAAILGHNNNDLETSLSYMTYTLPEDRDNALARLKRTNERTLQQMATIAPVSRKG

TelA (1–106) N-terminal domain with the K9E mutation (from UniProt A0A822V2W1 1-106) (domain or fragment)
fold reduction of the initial rate of telomere resolution by (ΔN; E337K) at 0°C when (N; K9E) is added in trans [1]: 10 fold

TelA (1–106), N-terminal domain of the Agrobacterium tumefaciens telomere resolvase TelA (from UniProt A0A822V2W1 1-106) (domain or fragment)
fold reduction of the initial rate of telomere resolution by (ΔN; E337K) at 0°C when the N-terminal domain (N, 800 nM, about 10-fold molar excess) is added in trans [1]: 22 fold

B1: rTel (OGCB951F/OGCB952) (dsDNA)
DNA 1: AACTCTAACCATTGCGCGATCGATCATAATAACAATATCATGATATTGTTATTGTAATCGATCGCGGATCCCGGGCGTAGCCACGTAGGT
DNA 2: GAACCTACGTGGCTACGCCCGGGATCCGCGATCGATTACAATAACAATATCATGATATTGTTATTATGATCGATCGCGCAATGGTTAGAG
binding result (TelA (ΔC3; D202AE337K)): binds
binding result [2]: no binding
binding result (TelA (ΔN); chain copies: 2, label: 5'-fluorescein on strand 1, 5' overhang 2 nt at both ends): no binding
binding result (TelA (ΔNΔC3; D202RE337K)): binds
binding result [3]: binds
binding result (TelA wild type): binds

B2: hairpin telomere (hp), OKBA28F (structured_DNA)
DNA: ATCCCTCTAACCATTGCGCGATCGATCATAATAACAATATCATGATATTGTTATTATGATCGATCGCGCAATGGTTAGAGG
binding result (TelA (ΔN); label: 5'-fluorescein, hairpin, 5' overhang 3 nt): no binding
